Substitutions are numbered along the chain they refer to.
Experiments:
Experiment in all cases: SPR, antibody captured, C2 as analyte;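 also: biacore at 37 °C, anti-C2 mAbs held by immobilised goat anti-human IgG, C2 alanine or serine mutants injected, double-referenced sensorgrams fitted to a 1:1 kinetic or steady-state model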
[1] = target: T1, human C2 M452A (human, UniProt P06681 21-752)
T1 sequence: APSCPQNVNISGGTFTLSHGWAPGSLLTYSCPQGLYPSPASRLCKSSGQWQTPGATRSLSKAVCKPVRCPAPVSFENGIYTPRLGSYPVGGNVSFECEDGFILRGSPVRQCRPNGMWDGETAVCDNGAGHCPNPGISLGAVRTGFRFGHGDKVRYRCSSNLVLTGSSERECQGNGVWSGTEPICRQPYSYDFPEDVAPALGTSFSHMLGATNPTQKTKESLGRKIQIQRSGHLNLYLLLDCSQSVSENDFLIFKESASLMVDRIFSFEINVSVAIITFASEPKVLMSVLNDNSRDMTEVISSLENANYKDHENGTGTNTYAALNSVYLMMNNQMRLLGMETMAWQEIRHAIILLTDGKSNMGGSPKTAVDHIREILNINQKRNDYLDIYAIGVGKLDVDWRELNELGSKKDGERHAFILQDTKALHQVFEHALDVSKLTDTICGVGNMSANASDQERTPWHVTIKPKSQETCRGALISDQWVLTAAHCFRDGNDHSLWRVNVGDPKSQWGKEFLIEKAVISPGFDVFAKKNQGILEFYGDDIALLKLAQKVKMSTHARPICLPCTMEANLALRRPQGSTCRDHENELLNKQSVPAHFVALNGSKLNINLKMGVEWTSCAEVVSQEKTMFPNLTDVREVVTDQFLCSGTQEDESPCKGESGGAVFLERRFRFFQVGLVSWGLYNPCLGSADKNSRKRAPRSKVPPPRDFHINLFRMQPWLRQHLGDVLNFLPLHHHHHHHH

[2] = target: T2, human C2 D441A (human, UniProt P06681 21-752)
T2 sequence: T1 sequence with D421A, A432M

[3] = target: T3, human C2 K415A (human, UniProt P06681 21-752)
T3 sequence: T1 sequence with K395A, A432M

[4] = target: T4, human C2 H331A (human, UniProt P06681 21-752)
T4 sequence: T1 sequence with H311A, A432M

B1: RF16-242 (antibody, human IgG4 S228P, lambda, V domains shown)
VH: EVQLLQSGAEVKKPGESLKISCKGSGYSFTSYWIGWVRQMPGKGLEWMGIIYPGDSDTRYSPSFQGQVTISADKSISTAYLQWSSLKASDTAMYYCARRGHYGDYFDYWGQGTLVTVSS
VL: SYELTQPPSVSVSPGQTARITCSGDALPKKYAYWYHQKSGQAPVLVIYEDRRRPSEIPERFSGSSSGTMATLTITGAQVEDEGVYFCYSRDRAGNQRVFGGGTQLTVLG
notes: pH-dependent anti-C2 antibody from a phage display library
Question: How did the Kd [1] turn out when B1 was run?
Answer: The Kd was 5.3 nM.

Question: And the Kd [2]?
Answer: The Kd was 114 nM.

Question: And the Kd [3]?
Answer: Its Kd is 4.1 nM.

Question: What about the Kd [4] of the same binder?
Answer: The Kd was 191 nM.
